The values that follow come from US20240425606A1, “ANTI-IL-11RA ANTIBODIES” (Lassen Therapeutics 1, Inc., priority 2021, published 2024).

T1: human IL-11Rα (human, UniProt Q14626 23-363, limits assumed)
T1 construct: Protein coated on ELISA plates and used in solution for BLI; also called hIL-11Rα; hIL-11R
T1 sequence: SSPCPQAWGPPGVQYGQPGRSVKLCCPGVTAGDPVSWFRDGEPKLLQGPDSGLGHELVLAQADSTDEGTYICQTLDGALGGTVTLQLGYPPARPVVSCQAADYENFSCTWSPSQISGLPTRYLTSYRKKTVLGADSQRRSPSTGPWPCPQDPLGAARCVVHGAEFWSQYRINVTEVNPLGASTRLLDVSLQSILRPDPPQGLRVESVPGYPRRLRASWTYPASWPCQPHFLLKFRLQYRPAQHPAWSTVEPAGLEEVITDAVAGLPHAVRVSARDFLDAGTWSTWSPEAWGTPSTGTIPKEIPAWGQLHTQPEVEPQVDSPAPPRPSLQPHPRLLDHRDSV

T2: hIL-1 IR (Homo sapiens, UniProt Q14626)
T2 sequence (Q14626 23-422): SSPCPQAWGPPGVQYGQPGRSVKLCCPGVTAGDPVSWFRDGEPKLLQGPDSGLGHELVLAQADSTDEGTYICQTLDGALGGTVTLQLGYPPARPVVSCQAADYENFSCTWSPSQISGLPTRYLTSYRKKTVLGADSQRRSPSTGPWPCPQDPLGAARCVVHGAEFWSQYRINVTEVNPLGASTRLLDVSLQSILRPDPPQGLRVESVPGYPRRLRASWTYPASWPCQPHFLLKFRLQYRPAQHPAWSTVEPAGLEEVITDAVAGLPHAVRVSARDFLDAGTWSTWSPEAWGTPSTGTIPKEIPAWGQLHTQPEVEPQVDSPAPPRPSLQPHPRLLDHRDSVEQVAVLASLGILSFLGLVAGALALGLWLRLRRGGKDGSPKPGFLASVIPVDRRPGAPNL

B1: mAb21 (antibody, human IgG4, V domains shown)
VH: EVQLLESGGGLVQPGGSLRLSCAASGFTFSHYSMTWVRQAPGKGLEWVSSIVPYGDLTQYADSVKGRFTISRDNSKNTLYLQMNSLRAEDTAVYYCAKGPGWGSFDLWGRGTLVTVSS
VL: DIQMTQSPSSLSASVGDRVTITCQASQDINNYLNWYQQKPGKAPKLLIYDASNLQTGVPSRFSGSGSGTDFTFTISSLQPEDIATYYCQQHESQSPTFGPGTKVDIK
notes: Expressed as human IgG4 (S228P EU)
B2: mAb31 (antibody, human IgG4, V domains shown)
VH: B1 VH with H31V
VL: B1 VL
notes: as for B1
B3: mAb23 (antibody, human IgG4, V domains shown)
VH: B1 VH with H31K
VL: B1 VL
notes: as for B1
B4: mAb29 (antibody, human IgG4, V domains shown)
VH: B1 VH with H31S
VL: B1 VL
notes: as for B1
B5: mAb16: anti-IL-11Rα antibody; VH SEQ ID NO: 223, VL SEQ ID NO: 224; heavy chain Kabat position 31 variant of mAb5 (antibody, V domains shown)
VH: B1 VH with H31A
VL: B1 VL
modifications: mAb16 VH Chain; mAb16 VL Chain
notes: anti-IL-11Rα antibody; heavy chain Kabat position 31 variant of mAb5
B6: mAb19: anti-IL-11Rα antibody; VH SEQ ID NO: 229, VL SEQ ID NO: 230; heavy chain Kabat position 31 variant of mAb5 (antibody, V domains shown)
VH: B1 VH with H31F
VL: B1 VL
modifications: mAb19 VH Chain; mAb19 VL Chain
notes: as for B5
B7: mAb32: anti-IL-11Rα antibody; VH SEQ ID NO: 255, VL SEQ ID NO: 256; heavy chain Kabat position 31 variant of mAb5 (antibody, V domains shown)
VH: B1 VH with H31Y
VL: B1 VL
modifications: mAb32 VH Chain; mAb32 VL Chain
notes: as for B5
B8: mAb18: anti-IL-11Rα antibody; VH SEQ ID NO: 227, VL SEQ ID NO: 228; heavy chain Kabat position 31 variant of mAb5 (antibody, V domains shown)
VH: B1 VH with H31E
VL: B1 VL
modifications: mAb18 VH Chain; mAb18 VL Chain
notes: as for B5
B9: mAb17: anti-IL-11Rα antibody; VH SEQ ID NO: 225, VL SEQ ID NO: 226; heavy chain Kabat position 31 variant of mAb5 (antibody, V domains shown)
VH: B1 VH with H31D
VL: B1 VL
modifications: mAb17 VH Chain; mAb17 VL Chain
notes: as for B5

Numbering of substitutions follows the chain as printed. Names and notes keep the numbering of the source.

One experiment has as its target T1, human IL-11Rα. In words: BLI (Octet RED96e), mAb on anti-human constant domain (AHC) biosensors, hIL-11R in solution.
Details: not given
The source says:
(§1) A further series of antibodies were designed in which the residue at Kabat position 31 of the heavy chain was varied (mAbs 16-32). In this case an alternate biolayer interferometry assay was used to initially rank the antibodies compared to mAb5, the closest relative in sequence to mAbs 16-32. MAbs were loaded onto anti-human constant domain (AHC) biosensors (FortdBio) in 10× kinetics buffer consisting of PBS, 0.1% BSA, 0.02% Tween 20 for 120 s to achieve a spectral shift value of 0.8 to 1.2 nm. Association was carried out in the presence of 2-fold dilution series of hIL-1 IR and was allowed to proceed for 120 s. Dilution series started 10 nM. The dissociation in 10× kinetics buffer for 1200 s. Binding kinetic measurements were taken on an Octet RED96e instrument.
On the technique in general: In BLI a coated tip is dipped into the sample, and binding shifts an interference pattern.
Turning to B1, the Kd (usually the equilibrium constant for the complex coming apart) was < 0.03 nM and the kon (as a rule, a measure of how fast the partners come together) was determined as 750000 M⁻¹ s⁻¹.
In the case of B2, the Kd is < 0.03 nM and the association rate constant (kon) is 690000 M⁻¹ s⁻¹.
For B3 the same measures were < 0.03 nM and 720000 M⁻¹ s⁻¹.
In the case of B4, the equilibrium dissociation constant (Kd) worked out at 0.03 nM, the off-rate constant (koff) (usually the rate constant with which the complex falls apart) worked out at 1.8e-05 s⁻¹ and the kon turned out to be 610000 M⁻¹ s⁻¹.

Another experiment has as its target T2, hIL-1 IR. In words: Alternate biolayer interferometry assay (AHC biosensors) ranking mAbs 16-32 against mAb5. The experiment is classed as binding. To be noted: compared to mAb5.
Text: as §1
Turning to B5, the qualitative assessment result is on record as “similar”.
The same measure, in the same setting: then B6, with “similar”.
The same measure, in the same setting: then B7, with “similar”; and B8, with “decreased”.
Still for that read-out and setting: then B9, with “decreased”.
